Reference: the supplement of paper PMC10567573
± gives the standard deviation.

Test: protein stability index of a GFP-peptide fusion (GPS, HEK-293T) (PSI 1-6); higher = more stable
Conditions: c terminus: a fixed tail appended
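Note: 24-mer peptide tiles fused after GFP, lentivirally expressed, FACS-sorted into six equal bins by GFP/DsRed ratio, decoded by Illumina sequencing, PSI is the read-weighted mean bin number.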

Row | Sequence | protein stability index (treatment: DMSO) | protein stability index (treatment: MLN4924 1 uM, 8 h)
1 | RIRSYLREVSSYPSTVGAEAQEEF [DFFB] | 3.33 ± 0.16 | 3.58 ± 0.29
2 | TCICYLCMFQEHKNHSTVTVEEAK [TRIM29] | 2.24 ± 0.43 | 2.67 ± 0.51
3 | TLFQTESPQSGSILTEETEVKGTL [PBXIP1] | 4.92 ± 0.17 | 4.7 ± 0.25
4 | HFWGEKNHGFEVLYHSVKQGPIST [FCHO1] | 2.44 ± 0.52 | 2.48 ± 0.43
5 | GESFPAQVPSGEDQTALSLEECLR [NFE2L1] | 5.08 ± 0.89 | 5.15 ± 0.076
6 | WLLTHLLWFANAHLLSWFSPTIIF [DHCR7] | 3.36 ± 0.17 | 2.96 ± 0.3
7 | NGQLMAVGGFDGTTYLKTIEVFDP [KLHL20] | 2.93 ± 0.072 | 2.91 ± 0.45
8 | KREELCRQIQEEEDEKQRLQNEVR [SSNA1] | 5.01 ± 0.22 | 5.1 ± 0.075
9 | EHCGAVCFVKDNPQKSYFIRLYGL [WAS] | 2.32 ± 0.35 | 2.31 ± 0.64
10 | DDIVSGRLPCSFVTLALLGSYTVQ [EPB41L3] | 2.72 ± 0.44 | 2.53 ± 0.53
11 | SESSPSDFSVSLKASGKNKHFKVQ [NCK2] | 4.39 ± 0.18 | 4.33 ± 0.17
12 | RPGPSASAASSAAAGEPLECPTCG [RNF208] | 5.3 ± 0.2 | 5.3 ± 0.28
13 | LFLKEGACDELFSYLIEKVKRKKN [PRAME] | 2.18 ± 0.5 | 2.21 ± 0.27
14 | YQQIKAGAYDFPSPEWDTVTPEAK [CAMK2B] | 3.89 ± 0.34 | 4.15 ± 0.32
15 | ADFSSMLSEEEKEELKAELVQLED [TPD52L1] | 5.47 ± 0.32 | 5.3 ± 0.37
16 | PDQAYDFLLKFLLVGDRDVGKSEI [RAB40A] | 2.46 ± 0.39 | 2.35 ± 0.3
17 | KGLSVEFALLADKAAQQGKQEEND [SNX8] | 5.237 ± 0.033 | 5.13 ± 0.21
18 | PPTINGIKGLQRKERLKPAHIHLQ [KRT34] | 3.34 ± 0.15 | 3.59 ± 0.46

Row | Sequence | protein stability index (treatment: DMSO) | protein stability index (treatment: MLN4924 1 uM, 8 h)
19 | SAASVYAGAGGSGSRISVSRSTSF [KRT18] | 3.66 ± 0.066 | 3.59 ± 0.28
20 | MTEWFMCAFSRTLPWSSVLRVWDM [TBC1D10A] | 3.32 ± 0.42 | 2.84 ± 0.23
21 | VYTGKLLLNLVDHTEVVRDLTFAP [WSB1] | 2.2 ± 0.28 | 2.36 ± 0.35
22 | NERKVAQLAEENERLKQEIERLTR [DDIT3] | 5.1 ± 0.37 | 5.18 ± 0.3
23 | HIDIVKELIKWRAAIVVNGHGMTP [FEM1B] | 2.15 ± 0.53 | 2.17 ± 0.26
24 | SYSFQNPSSFDPSMLLQRFSVAPH [RNF180] | 2.58 ± 0.28 | 2.68 ± 0.23
25 | WSLGVIMYEMLIGYPPFCSETPQE [STK38L] | 2.85 ± 0.59 | 2.52 ± 0.44
26 | IASIADVCESMKEQLLVLVEWAKY [HNF4A] | 2.42 ± 0.36 | 2.15 ± 0.38
27 | MHLNAEGMLSYCDRYSEGIKHVLQ [CRYL1] | 2.4 ± 0.29 | 2.32 ± 0.42
28 | TPLLMAARYGHLDMVEFLLEQCSA [FEM1C] | 2.28 ± 0.41 | 2.26 ± 0.24
29 | RIASRAIDNAADLLIFGKELSAIG [SNX8] | 2.34 ± 0.28 | 2.44 ± 0.38
30 | SLSVRHRQVKHYRIFRLPNNWYYI [SLA] | 2.29 ± 0.7 | 2.58 ± 0.49
31 | TWVPMFLSTLLAPYQALRLWARGT [SOAT2] | 2.81 ± 0.48 | 2.72 ± 0.64
32 | EIEQYRLQREKEFKAKEAAALGSR [ATP6V1G1] | 4.15 ± 0.21 | 3.77 ± 0.047
33 | SRRDDLEALGHMFMYFLRGSLPWQ [CSNK1G1] | 3.48 ± 0.54 | 3.15 ± 0.86
34 | PGKINCLRNCKTYQARKPLWFYNT [RHOBTB3] | 2.59 ± 0.41 | 2.76 ± 0.47
35 | SPINMEDQERIKVERKRLRNRLAA [JUNB] | 4.48 ± 0.55 | 4.65 ± 0.087
36 | PEMNGNGAVAPMDFTTAAEDQPIN [NOL4L] | 5.35 ± 0.26 | 5.47 ± 0.15
